Experiment: yeast display, Sf9 membrane polyspecificity reagent, FACS + sequencing; frameworks hold sequencing errors
Method in brief: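 Sorting gates, low and high (top ~1%), were placed on anti-HA fluorescence to track expression and on streptavidin fluorescence to track reagent binding. A clone's polyreactivity label is taken from the gate it came out of. The reagent was 10% biotinylated, detergent-solubilized Sf9 membrane, applied for 1 hour at 4 °C to galactose-induced yeast display cells.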

Row | Sequence | polyreactivity (PSR sort gate)
1 | QVQLQESGGGLVQAGGSLRLSCAASGYISYLDFMGWYRQAPGKERELVAGITTGATTNYADSVKGRFTISRDNAKNIVYHQMNSLKPEDTAVYYCAVIGGDTRGHPYWGQGSQVTVSS | low polyreactivity
2 | QVQLVESGGGLVQAGGSLRLSCAASGSTFGTYAMGWYRQAPGKERELVAAISSGDSTTYADSVKGRFTISRDNAKNTVYLQMNSLKPEDTAVYYCAARVPYKSDYWGQGTQVTVSS | low polyreactivity
3 | QVQLVESGGGLVQAGGSLRLSCAASGSTFKPYAMGWYRQAPGKERELVAAITWTGGSTYYADSVKGRFTISRDNAKNTVYLEMNSLKPDDTAVYYCNAYLRWYITLLRYLAGGDYWGQGTQVTVSS | high polyreactivity
4 | QVQLVESGGGLVQAGGSLRLSCAASGFTFVYYAMGWYRQAPGKERELVAAISRSGGSTYYADSVKGRFTISRDNAKNTVNLQMNSLKPEDTAVYYCAARKTYGSRLSYEYWGQGTQVTVSS | high polyreactivity
5 | QVQLVESGGGLVQAGGRLRLSCAASGSISGYYAMGWYRQAPGKERELVASIRYTGARTYYADSVKGRFTISRDNAKNNVYLQMNSLKPEDTAVYYCAADVKRDRVWGGDYWGQGTQVTVSS | low polyreactivity
6 | QVQLVDSGGALVQAGGSLRLICAASGSTFIINAMGWYRQAPGKDRELVAAISGRGTRTYYADSVKGRFTISRDNAKNSVYLQMKSLKPEDTAVYYCNAVRSLSFTTEHDYWGQGTQVTVSS | high polyreactivity
7 | QVQLVESCGGLVQAGGSLRLSSAASGRIFYAYVMGWYRQAPGKERELVADITSSGSTNYADTVKGRFTISRDNAKKTVYLQLISLKQEDTAVFYCAKVPYGYQVRRNFGYWGQGTQVTVSS | low polyreactivity
8 | QVHLVESGGGLVHAGGSLRLSCAASGSTFDYYAMGWYRQEHGKERELVAAISSGGSTYYADSVKGSFTISRDNPKNTVYLQMNSRKPEDTAVYYCAAVYRGQFSRYDYWGQGTQVTVSS | low polyreactivity
9 | QVQLVESGGGLVQAGGSLRLSCAASGRTFRYYAMGWYRQAPGKERELVAAISSSGDRTYYADSVKGRFTISRDNAKNTVYLQMNSLKPEDTAVFYCAADRGARGDYWGQGTQVTVSS | high polyreactivity
10 | QVQLVESGGGLVQAGGSLRLSCAASGLTISRYAMGWYRQAPGKERELVAAITSIGGSTYYADSVKGRFTISRDNAKNTVYLQMNSLKPVDTAVYYCACLRCLFPGRFDYWGQSTQVTVSS | high polyreactivity
11 | QVQLVESGGGLVQAGGSLRLSCAASGFTFYSYAMGWYRQAPGKEREFVAAGSTYYADSVKGRFTISRGNAKNTVYLQMNSLKPEDTAVYYCAADPWIYVQSYGYWGQGTQVTVSS | low polyreactivity
12 | QVQLVESGGGLVQAGGSLRLSCAASGRTFQPYAMGWYRQAPGKERELVAAITSIGGSTFYADSVKGRFTISRDNAKNTVYLQMNSLKPEDTAVYYCARRGYYRSIWERDYWGQGTQVTVSS | low polyreactivity
13 | QVQLVESGGGLVQAGGSLRLSCAASGRSFRYNAMGWYRQAPGKARELVAAISSGGSTNYADSVKGRFTTTRDNAKNTVYLQMNSLKPEDTAVYYCNAVYVHRYPGWGYDYWGQGTQVTVSS | low polyreactivity
14 | QVQLVESGGGLVQAGGSLRLSSAASGRIFFGNTMGWYRQAPGKERELVATIRKIGGRTYYADSVKGRFTISRDNAKNTVYLQMNSLKPEDTAVYYCATDFAPSYYPDRFDYWGQGTQVTVSS | low polyreactivity
15 | QVQLVESGGGLVQAGGSLRLSCAASGRIFGFNAMGWYRQAPGKERQLVAAISGRSGRTYYADSVKGRFTISRDNAKNTVYLQLNSLIPEDTAVYYCNTVGYRGPSWYVYWGQGTQVTVSS | high polyreactivity
16 | QVQLVESGGGLVQAGGSLRLSCAASVPTFPFNAMGWYRQAPGKERELVAAISWRDGRTYYADSVKGRFTISRDNAKNTVYLQMNSLKPEDTAVYYCNVVKRRSDWGMDYWGQGTKVTVSS | high polyreactivity
17 | QVQLVESGGGLVQAGGSLRLSCAASGSIFTRYAMGWYRQAPGKERELVAAITKSGSRTYYADSVKGRFTISRDNAKNTVYLQMNSLKPEDTAVYYCAVKFYLPRTRGGYWGQGTQVTVSS | high polyreactivity
